The numbers were not newly measured in PMC5578174, which cites them from elsewhere.

For series [1], the target named is Ang-2 (Homo sapiens) (UniProt O15123).
Series [2] addresses PDGFRα (Homo sapiens) (UniProt P16234).

Chain of Ang-2 (Homo sapiens) (O15123 19-496): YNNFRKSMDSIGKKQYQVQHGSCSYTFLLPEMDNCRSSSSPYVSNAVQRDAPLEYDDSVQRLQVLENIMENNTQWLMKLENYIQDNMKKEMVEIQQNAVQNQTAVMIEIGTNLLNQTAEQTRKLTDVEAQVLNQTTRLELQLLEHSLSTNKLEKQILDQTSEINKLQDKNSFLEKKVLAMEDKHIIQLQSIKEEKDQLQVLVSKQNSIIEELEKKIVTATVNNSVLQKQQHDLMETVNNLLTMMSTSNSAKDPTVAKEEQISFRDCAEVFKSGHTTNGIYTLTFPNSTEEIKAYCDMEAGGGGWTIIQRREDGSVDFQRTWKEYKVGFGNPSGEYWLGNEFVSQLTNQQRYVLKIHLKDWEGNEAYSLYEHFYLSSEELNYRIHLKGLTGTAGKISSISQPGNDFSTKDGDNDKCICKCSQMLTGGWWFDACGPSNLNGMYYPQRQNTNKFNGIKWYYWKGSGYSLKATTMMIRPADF
Chain of PDGFRα (Homo sapiens) (P16234 24-528): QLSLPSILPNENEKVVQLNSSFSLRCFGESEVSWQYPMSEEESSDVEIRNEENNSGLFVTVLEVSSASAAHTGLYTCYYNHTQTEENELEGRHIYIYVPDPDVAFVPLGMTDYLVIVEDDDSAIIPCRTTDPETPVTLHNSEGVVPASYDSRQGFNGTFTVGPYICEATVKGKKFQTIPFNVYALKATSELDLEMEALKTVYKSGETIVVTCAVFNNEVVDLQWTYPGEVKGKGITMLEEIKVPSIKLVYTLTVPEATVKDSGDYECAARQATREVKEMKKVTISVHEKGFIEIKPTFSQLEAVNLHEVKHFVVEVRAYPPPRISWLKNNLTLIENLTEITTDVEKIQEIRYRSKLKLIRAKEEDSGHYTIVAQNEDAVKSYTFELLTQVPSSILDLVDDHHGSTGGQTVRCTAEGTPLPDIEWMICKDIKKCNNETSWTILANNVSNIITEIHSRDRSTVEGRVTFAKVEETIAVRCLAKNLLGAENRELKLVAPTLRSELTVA

A word on the Kd: it is a measure of binding affinity in units of concentration. Nesvacumab: the equilibrium dissociation constant (Kd) in series [1] was 0.024 nM.
For Olaratumab, in series [2], the Kd was 0.04 nM.
